Measured values published in patent US20150344570A1 (published 2015).
Read-outs that look alike come from different tables or passages of the source.

T1: FcgRIIb (human, UniProt P31994 43-217)
T1 construct: extracellular domain; Soluble extracellular domain with C-terminal His tag, expressed in FreeStyle293 cells; also called FcγRIIb; 2b; not shown: His tag at the C terminus
T1 sequence (looked up): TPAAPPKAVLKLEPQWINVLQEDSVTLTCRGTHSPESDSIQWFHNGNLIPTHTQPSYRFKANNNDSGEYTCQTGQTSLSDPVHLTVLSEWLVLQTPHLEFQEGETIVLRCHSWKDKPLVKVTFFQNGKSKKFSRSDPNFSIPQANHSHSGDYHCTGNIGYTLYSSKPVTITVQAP

T2: FcgRIIaH (human, UniProt P12318 34-217)
T2 construct: extracellular domain; Soluble extracellular domain with C-terminal His tag, expressed in FreeStyle293 cells; also called FcγRIIa H; FcgRIIa type H; not shown: His tag at the C terminus
T2 sequence (looked up): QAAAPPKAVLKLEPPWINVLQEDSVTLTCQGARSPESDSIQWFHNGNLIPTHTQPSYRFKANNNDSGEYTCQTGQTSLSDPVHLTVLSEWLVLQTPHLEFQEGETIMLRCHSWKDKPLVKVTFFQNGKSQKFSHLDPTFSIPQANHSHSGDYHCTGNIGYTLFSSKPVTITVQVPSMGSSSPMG

T3: FcgRIIaR (human, UniProt P12318 34-217)
T3 construct: extracellular domain; Soluble extracellular domain with C-terminal His tag, expressed in FreeStyle293 cells; also called FcγRIIa R; FcgRIIa type R; not shown: His tag at the C terminus
T3 sequence (looked up): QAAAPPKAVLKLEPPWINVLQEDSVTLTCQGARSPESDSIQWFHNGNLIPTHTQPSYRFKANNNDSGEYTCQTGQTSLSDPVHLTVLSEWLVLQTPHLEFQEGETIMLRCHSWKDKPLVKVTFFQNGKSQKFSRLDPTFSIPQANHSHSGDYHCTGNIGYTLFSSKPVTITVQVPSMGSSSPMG


Experiments:
FcgRIIb [1] = biological target: T1, FcgRIIb; assay: SPR (Biacore); KD of the variant for FcgRIIaR divided by its KD for FcgRIIb
FcgRIIaH = biological target: T2, FcgRIIaH; assay: SPR (Biacore), antibody captured on chip, FcgR extracellular domain as analyte
FcgRIIaR = biological target: T3, FcgRIIaR; assay: as above
FcgRIIb [2] = biological target: T1, FcgRIIb; assay: as above
FcγRIIIa [3] = biological target: T4, FcγRIIIa (human, UniProt P08637 17-208); assay: ratio of SPR KDs: KD of GpH7-TA7/GpH7-B78/GpL16-k0 divided by KD of this antibody
T4 construct: extracellular domain; also called FcgRIIIa; CD16A; not shown: His tag attached to the C terminus
T4 sequence (P08637 17-208): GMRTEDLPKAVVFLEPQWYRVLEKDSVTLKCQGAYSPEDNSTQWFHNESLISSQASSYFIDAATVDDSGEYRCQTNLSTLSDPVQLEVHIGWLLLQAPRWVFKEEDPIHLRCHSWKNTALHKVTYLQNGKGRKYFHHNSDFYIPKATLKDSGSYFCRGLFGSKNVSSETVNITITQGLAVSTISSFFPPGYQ
Excerpt: First, it was considered which H chain should be introduced with Y296W. GpH7-TA52 (SEQ ID NO: 44) resulting from the introduction of the mutation Y296W into GpH7-TA7 was constructed, and expressed and prepared in combination with GpH7-B78 according to the method described in Reference Example 1. Furthermore, GpH7-TA58 (SEQ ID NO: 45) resulting from the introduction of Y296W into GpH7-B78 was constructed, and expressed and prepared in combination with GpH7-TA22 according to the method described in Reference Example 1. To assess the effects of combinations with Y296W, the prepared antibodies were compared for the FcγRIIIa-binding activity according to the method described in Reference Example 2 (Table 16).
(§1) Analysis of interaction between objective antibody and the FcγR was carried out using Biacore T100 (GE Healthcare). HBS-EP+ (GE Healthcare) was used as the running buffer, and the measurement temperature was set to 25° C. Chips produced by immobilizing the antigen peptide by the amine coupling method to a Series S Sencor Chip CM5 (GE Healthcare), or alternatively, chips produced by allowing preliminarily biotinylated antigen peptides to interact with and immobilize onto a Series S Sensor Chip SA (certified) (GE Healthcare) were used. Antibodies of interest were captured onto an antigen peptide-immobilized chip, and allowed to interact to each FcγR diluted with running buffer. To regenerate and repeatedly use the chip, the antibodies captured on the chip were washed off by reacting 10 mM glycine-HCl, pH 1.5.

FcγRIIIa [4] = biological target: T4, FcγRIIIa; assay: ratio of SPR KDs: KD of GpH7-A5/GpH7-B3/GpL16-k0 divided by KD of this antibody
Protocol: The prepared antibodies were compared for the FcγRIIIa-binding activity using, as an indicator, KD for FcγRIIIa that was determined according to the method described in Reference Example 2.
as §1
(§2) Specifically, to calculate association rate constant ka (L/mol/s) and dissociation rate constant kd (1/s), sensorgrams obtained by measurement were processed for global fitting by Biacore Evaluation Software using 1:1 Langmuir binding model and dissociation constant KD (mol/1) was calculated from the resulting values.

FcγRIIIa [5] = biological target: T4, FcγRIIIa; assay: ratio of SPR KDs: KD of GpH7-G1d/GpL16-k0 divided by KD of this antibody
Summary of the method: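 Biacore SPR at 25 °C in HBS-EP+; antibodies captured on antigen peptide-immobilized CM5 or SA chips, FcγRIIIa flowed as analyte, regeneration with 10 mM glycine-HCl pH 1.5. KD from ka and kd by global 1:1 Langmuir fitting; values are the reference antibody's KD divided by this antibody's KD.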

FcγRIIIa [6] = biological target: T4, FcγRIIIa; assay: ratio of SPR KDs: KD of GpH7-TA7/GpH7-B78/GpL16-k0 divided by KD of this antibody; remark: listed apart in the source
Protocol: as §1, §2

Row | Binder | KD(IIaR)/KD(IIb) (FcgRIIb [1]) | Relative KD (KD of IL6R-B3/IL6R-L divided by KD of the variant) (FcgRIIaH) | Relative KD (KD of IL6R-B3/IL6R-L divided by KD of the variant) (FcgRIIaR) | Relative KD (KD of IL6R-B3/IL6R-L divided by KD of the variant) (FcgRIIb [2]) | KD ratio (FcγRIIIa [3]) [fold] | KD ratio 2 (FcγRIIIa [4]) [fold] | KD ratio 1 (FcγRIIIa [5]) [fold] | KD ratio (FcγRIIIa [6]) [fold]
1 | IL6R-BP253/IL6R-L (antibody, human IgG1, kappa, Homodimerized antibody) heavy: QVQLQESGPGLVKPSETLSLTCAVSGHSISHDHAWSWVRQPPGEGLEWIGFISYSGITNYNPSLQGRVTISRDNSKNTLYLQMNSLRAEDTAVYYCARSLARTTAMDYWGEGTLVTVSSASTKGPSVFPLAPSSKSTSGGTAALGCLVKDYFPEPVTVSWNSGALTSGVHTFPAVLQSSGLYSLSSVVTVPSSSLGTQTYICNVNHKPSNTKVDKKVEPKSCDKTHTCPPCPAPELLGGPSVFLFPPKPKDTLMISRTPEVTCVVVDVEHEDPEVKFNWYVDGVEVHNAKTKPREEQYNSTYRVVSVLTVLHQDWLNGKEYKCKVSNKAFPAPIEKTISKAKGQPREPQVYTLPPSRDELTKNQVSLTCLVKGFYPSDIAVEWESNGQPENNYKTTPPVLDSDGSFFLYSKLTVDKSRWQQGNVFSCSVMHEALHNHYTQESLSLSP light: not shown | 0.3 | 0.9 | 480 | 349 | – | – | – | –
2 | IL6R-AP002/IL6R-BP256/IL6R-L (antibody, human IgG1, kappa, Heterodimerized antibody (two different H chains, same variable region), S239D in one H chain only) heavy 1: QVQLQESGPGLVKPSETLSLTCAVSGHSISHDHAWSWVRQPPGEGLEWIGFISYSGITNYNPSLQGRVTISRDNSKNTLYLQMNSLRAEDTAVYYCARSLARTTAMDYWGEGTLVTVSSASTKGPSVFPLAPSSKSTSGGTAALGCLVKDYFPEPVTVSWNSGALTSGVHTFPAVLQSSGLYSLSSVVTVPSSSLGTQTYICNVNHKPSNTKVDKKVEPKSCDKTHTCPPCPAPDLLGDDSVFLFPPKPKDTLMISRTPEVTCVVVDVSDEDGEVKFNWYVDGVEVHNAKTKPREEQYNSTYRVVSVLTVLHQDWLNGKEYKCKVSNKALPRPIEKTISKAKGQPREPQVYTLPPSRKELTKNQVSLTCLVKGFYPSDIAVEWESNGQPENNYKTTPPVLDSDGSFFLYSKLTVDKSRWQQGNVFSCSVMHEALHNRYTQKSLSLSP heavy 2: QVQLQESGPGLVKPSETLSLTCAVSGHSISHDHAWSWVRQPPGEGLEWIGFISYSGITNYNPSLQGRVTISRDNSKNTLYLQMNSLRAEDTAVYYCARSLARTTAMDYWGEGTLVTVSSASTKGPSVFPLAPSSKSTSGGTAALGCLVKDYFPEPVTVSWNSGALTSGVHTFPAVLQSSGLYSLSSVVTVPSSSLGTQTYICNVNHKPSNTKVDKKVEPKSCDKTHTCPPCPAPDLLGDDDVFLFPPKPKDTLMISRTPEVTCVVVDVSDEDGEVKFNWYVDGVEVHNAKTKPREEQYNSTYRVVSVLTVLHQDWLNGKEYKCKVSNKALPRPIEKTISKAKGQPREPQVYTLPPSRDELTKNQVSLTCLVKGFYPSDIAVEWESNGQPENNYKTTPPVLDSDGSFFLYSKLTVDKSRWQQGNVFSCSVMHEALHNHYTQESLSLSP light: not shown | 34.3 | 0.2 | 7.7 | 752 | – | – | – | –
3 | IL6R-AP002/IL6R-BP257/IL6R-L (antibody, human IgG1, kappa, Heterodimerized antibody (two different H chains, same variable region), S239E in one H chain only) heavy 1: QVQLQESGPGLVKPSETLSLTCAVSGHSISHDHAWSWVRQPPGEGLEWIGFISYSGITNYNPSLQGRVTISRDNSKNTLYLQMNSLRAEDTAVYYCARSLARTTAMDYWGEGTLVTVSSASTKGPSVFPLAPSSKSTSGGTAALGCLVKDYFPEPVTVSWNSGALTSGVHTFPAVLQSSGLYSLSSVVTVPSSSLGTQTYICNVNHKPSNTKVDKKVEPKSCDKTHTCPPCPAPDLLGDDSVFLFPPKPKDTLMISRTPEVTCVVVDVSDEDGEVKFNWYVDGVEVHNAKTKPREEQYNSTYRVVSVLTVLHQDWLNGKEYKCKVSNKALPRPIEKTISKAKGQPREPQVYTLPPSRKELTKNQVSLTCLVKGFYPSDIAVEWESNGQPENNYKTTPPVLDSDGSFFLYSKLTVDKSRWQQGNVFSCSVMHEALHNRYTQKSLSLSP heavy 2: QVQLQESGPGLVKPSETLSLTCAVSGHSISHDHAWSWVRQPPGEGLEWIGFISYSGITNYNPSLQGRVTISRDNSKNTLYLQMNSLRAEDTAVYYCARSLARTTAMDYWGEGTLVTVSSASTKGPSVFPLAPSSKSTSGGTAALGCLVKDYFPEPVTVSWNSGALTSGVHTFPAVLQSSGLYSLSSVVTVPSSSLGTQTYICNVNHKPSNTKVDKKVEPKSCDKTHTCPPCPAPDLLGDDEVFLFPPKPKDTLMISRTPEVTCVVVDVSDEDGEVKFNWYVDGVEVHNAKTKPREEQYNSTYRVVSVLTVLHQDWLNGKEYKCKVSNKALPRPIEKTISKAKGQPREPQVYTLPPSRDELTKNQVSLTCLVKGFYPSDIAVEWESNGQPENNYKTTPPVLDSDGSFFLYSKLTVDKSRWQQGNVFSCSVMHEALHNHYTQESLSLSP light: not shown | 27.7 | 0.2 | 8.3 | 657 | – | – | – | –
4 | GpH7-TA7/GpH7-B78/GpL16-k0 (antibody, human IgG1, kappa, Anti-glypican-3 IgG1 heterodimer; L234Y/G236W/S298A in H1, S239D/A330L/I332E in H2) heavy 1: QVQLVQSGAEVKKPGASVTVSCKASGYTFTDYEMHWIRQPPGEGLEWIGAIDPKTGDTAYSESFQDRVTLTADKSTSTAYMELSSLTSEDTAVYYCTRFYSYTYWGQGTLVTVSSASTKGPSVFPLAPSSKSTSGGTAALGCLVKDYFPEPVTVSWNSGALTSGVHTFPAVLQSSGLYSLSSVVTVPSSSLGTQTYICNVNHKPSNTKVDKKVEPKSCDKTHTCPPCPAPEYLWGPSVFLFPPKPKDTLMISRTPEVTCVVVDVSHEDPEVKFNWYVDGVEVHNAKTKPREEQYNATYRVVSVLTVLHQDWLNGKEYKCKVSNKALPAPIEKTISKAKGQPREPQVYTLPPSRKELTKNQVSLTCLVKGFYPSDIAVEWESNGQPENNYKTTPPVLDSDGSFFLYSKLTVDKSRWQQGNVFSCSVMHEALHNRYTQKSLSLSP heavy 2: QVQLVQSGAEVKKPGASVTVSCKASGYTFTDYEMHWIRQPPGEGLEWIGAIDPKTGDTAYSESFQDRVTLTADKSTSTAYMELSSLTSEDTAVYYCTRFYSYTYWGQGTLVTVSSASTKGPSVFPLAPSSKSTSGGTAALGCLVKDYFPEPVTVSWNSGALTSGVHTFPAVLQSSGLYSLSSVVTVPSSSLGTQTYICNVNHKPSNTKVDKKVEPKSCDKTHTCPPCPAPELLGGPDVFLFPPKPKDTLMISRTPEVTCVVVDVSHEDPEVKFNWYVDGVEVHNAKTKPREEQYNSTYRVVSVLTVLHQDWLNGKEYKCKVSNKALPLPEEKTISKAKGQPREPQVYTLPPSRDELTKNQVSLTCLVKGFYPSDIAVEWESNGQPENNYKTTPPVLDSDGSFFLYSKLTVDKSRWQQGNVFSCSVMHEALHNHYTQESLSLSP light: DIVMTQSPLSLPVTPGEPASISCQASESLVHSNRNTYLHWYLQKPGQSPQLLIYKVSNRFSGVPDRFSGSGSGTDFTLKISRVEAEDVGVYYCSQNTHVPPTFGQGTKVEIERTVAAPSVFIFPPSDEQLKSGTASVVCLLNNFYPREAKVQWKVDNALQSGNSQESVTEQDSKDSTYSLSSTLTLSKADYEKHKVYACEVTHQGLSSPVTKSFNRGEC | – | – | – | – | 1 | 347 | 261 | 1
